# According to patent publication KR20190044006A (dated 2019):
# Target: 재조합 MERS-CoV S1-RBD 단백질 (MERS-CoV EMC/2012, UniProt K9N5Q8 358-606)
# Experiment: ELISA screening of hybridoma supernatants on RBD antigen
binder,measurement,value
"단일 클론 항체 AT2F7 (antibody, V domains shown) VH: EVKLVESGGGLVKPGGSLKLSCAASGFTFSSYTMSWVRQTPEKRLEWVATISSGGSYTYYPDSVKGRFTISRDNAKNTLYLQMSSLKSEDTAMYYCTRDLYDGYFYYAMDYWGQGTSVTVSS VL: not shown",binding result,binds
